Results from patent US20200239594A1 (MINERVA BIOTECHNOLOGIES, published 2020).

T1: MUC1* extracellular domain peptide (PSMGFR, primary sequence of the MUC1 growth factor receptor)
T1 construct: Synthetic peptide adsorbed onto ELISA plates; The immunogen carried an extra C-terminal cysteine for KLH conjugation; also called MUC1* peptide; PSMGFR peptide
T1 peptide: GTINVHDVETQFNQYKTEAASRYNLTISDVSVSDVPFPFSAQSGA

B1: MIN-C2 scFv (heavy chain variable-linker-light chain variable, C-terminal poly-histidine tag) (scFv)
scFv: EVQLEESGGGLVKPGGSLKLSCAASGFTFSGYAMSWVRQTPEKRLEWVATISSGGTYIYYPDSVKGRFTISRDNAKNTLYLQMSSLRSEDTAMYYCARLGGDNYYEYFDVWGAGTTVTVSSAKTTPPSVYGGGGSGGGGSGGGGSDIVITQSTASLGVSLGQRATISCRASKSVSTSGYSYMHWYQQRPGQPPKLLIYLASNLESGVPARFSGSGSGTDFTLNIHPVEEEDAATYYCQHSRELPFTFGGGTKLEIKRADAAPTVSVDHHHHHH
notes: part was further purified on a PSMGFR peptide column; also called scFv protein; recombinant scFv
B2: MIN-C2 Fab (papain digestion of MIN-C2 antibody) (Fab, V domains shown)
VH: EVQLEESGGGLVKPGGSLKLSCAASGFTFSGYAMSWVRQTPEKRLEWVATISSGGTYIYYPDSVKGRFTISRDNAKNTLYLQMSSLRSEDTAMYYCARLGGDNYYEYFDVWGAGTTVTVSS
VL: DIVITQSTASLGVSLGQRATISCRASKSVSTSGYSYMHWYQQRPGQPPKLLIYLASNLESGVPARFSGSGSGTDFTLNIHPVEEEDAATYYCQHSRELPFTFGGGTKLEIKR
notes: Enzymatic Fab of about 50 kD made by papain digestion of the parent mAb; also called monovalent form of MIN-C2

What was measured:
[1] = molecular target: T1, MUC1* extracellular domain peptide …; experiment: ELISA on plate-adsorbed peptide; reference: refolded scFv before peptide affinity chromatography
[2] = molecular target: T1, MUC1* extracellular domain peptide …; experiment: competition ELISA, peptide on plate, competitor: parent MIN-C2 antibody
Experimental: To test the ability of the Fab produced by papain digestion to compete with the parent antibody for binding to the MUC1* peptide, varying concentrations of the Fab were added. After wash steps, the ELISA was processed by standard methods.

Binder | fold higher specific activity after antigen affinity purification [1] [fold] | fold improvement of specific binding after antigen affinity purification [1] [fold] | binding result [2]
B1 | ~10 | 10 | –
B2 | – | – | binds
